Assay [1] deals with SARS-CoV-2 Omicron (B.1.1.529) spike protein, plate-bound (MSD V-PLEX) (SARS-CoV-2 Omicron (B.1.1.529)) (UniProt P0DTC2).
Assay [2] has as its target SARS-CoV-2 Omicron (B.1.1.529) spike protein RBD, His-tagged (SARS-CoV-2 Omicron (B.1.1.529)) (UniProt P0DTC2). Nature of the assay: SPR. On the technique in general: Surface plasmon resonance follows binding to a sensor surface in real time, without labels.

Experimental findings from publication PMC10215022 are described below.

pIC50, pKd: −log10 of the molar value.

“REGEN-COV mAb cocktail (casirivimab and imdevimab at 1:1 molar ratio)” showed a pIC50 in assay [1] of 7.89.

In the case of casirivimab (REGN10933) (antibody), the pKd in assay [2] was 5.92.

What is called pIC50 is −log10 of the IC50, conventionally taken in molar units. Higher therefore signals a small IC50. A word on the pKd: it is −log10 of the Kd, conventionally taken in molar units. Lower therefore signals a large Kd.
